Measurements from patent US20200369754A1 (Janssen / Centocor, published 2020).
Substitutions are numbered along the chain they refer to. Numbers in names are those of the source.

T1: Tau peptide A6940 (human, biotin (bound via biotin to a streptavidin biosensor in the Octet assay; position of the biotin not stated))
T1 construct: Biotinylated in the Octet assay; also called cognate Tau peptide A6940
T1 peptide: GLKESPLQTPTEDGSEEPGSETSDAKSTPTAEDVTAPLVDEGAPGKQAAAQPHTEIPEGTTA

B1: CBTAU-28.1 (I50M[VH];Y52W[VH];S103W[VH];S32R[VL];E35K[VL]) (antibody, V domains shown)
VH: QVQLQQSGAEVKKPGESLKISCEASGYSFTNYWIGWVRQMPGKGLEWMGMIWPGDSDTRYSPPFQGQVTITADRSITTAYLEWSSLKASDTAMYYCARVGRPWKGGWFDPWGQGTLVTVSS
VL: DIQMTQSPDSLAVSLGERATINCESSQTLLYRSNKKNYLAWYQQKPGQPPKLLISWASTPESGVPDRFSGSGSGTSFTLTISSLQAEDVAVYYCQQYYNSPYTFGQGTRLEIK
B2: CBTAU-28.1 (I50M[VH];Y52W[VH];S103F[VH];S32R[VL];E35K[VL]) (antibody, V domains shown)
VH: B1 VH with W103F
VL: B1 VL
B3: CBTAU-28.1 (I50M[VH];Y52W[VH];S103W[VH];Y31W[VL];N99H[VL]) (antibody, V domains shown)
VH: B1 VH
VL: B1 VL with Y31W, R32S, K35E, N99H
B4: CBTAU-28.1 (S32R[VL];E35K[VL]) (antibody, V domains shown)
VH: B1 VH with M50I, W52Y, W103S
VL: B1 VL
B5: CBTAU-28.1 (I50M[VH];Y52W[VH];S103F[VH];Y31W[VL];N99H[VL]) (antibody, V domains shown)
VH: B1 VH with W103F
VL: B1 VL with Y31W, R32S, K35E, N99H

Key:
[1] = molecular target: T2, Aggregated recombinant 2N4R tau (rTau) (human, UniProt P10636 2-758, covalently labelled with pHrodo Green STP Ester); assay: uptake of pHrodo-labelled rTau immunocomplexes by BV2 cells, flow cytometry
T2 construct: Full-length huTau441 expressed in E. coli, in aggregated form; also called rTau aggregates; tau aggregates
T2 sequence (P10636 other isoform, or with tags, fused parts or gaps limits assumed): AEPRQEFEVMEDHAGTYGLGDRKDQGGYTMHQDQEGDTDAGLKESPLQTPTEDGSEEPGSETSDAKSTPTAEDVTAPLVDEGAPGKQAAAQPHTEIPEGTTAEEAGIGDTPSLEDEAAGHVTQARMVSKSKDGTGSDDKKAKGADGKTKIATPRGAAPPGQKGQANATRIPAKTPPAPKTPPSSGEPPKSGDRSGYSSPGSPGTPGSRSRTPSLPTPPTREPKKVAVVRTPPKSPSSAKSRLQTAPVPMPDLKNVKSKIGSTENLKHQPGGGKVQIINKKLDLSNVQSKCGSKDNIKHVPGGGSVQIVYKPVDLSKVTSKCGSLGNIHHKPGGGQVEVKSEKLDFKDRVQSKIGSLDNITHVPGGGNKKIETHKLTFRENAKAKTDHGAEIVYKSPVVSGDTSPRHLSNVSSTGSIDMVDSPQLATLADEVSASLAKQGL
Experimental: In each experiment a mouse IgG1 isotype control was included together with cells incubate with only aggregated rTau.
Immunocomplexes were incubated over night at 4° C. and the day after applied to BV2 cells for 2 hours at 37° C. with 5% CO2. After incubation cells were harvested with 0.25% trypsin-EDTA for 20 min thus simultaneously removing Tau bound to the extracellular membrane, centrifuged at 400 rcf to remove medium removed, washed twice with PBS and resuspended in flow cytometry buffer (PBS 1× plus 0.5% BSA and 2 mM EDTA). Cells were analyzed with a Canto II flow cytometer (BD) gating for live single cell population, as identified by forward and side scatter profiles. Each experiment was conducted in duplicate.

Tau peptide A6940 = molecular target: T1, Tau peptide A6940; assay: ITC, tau peptide 20 uM titrated with IgG 200 uM, PBS pH 7.4, one set of sites model
Experimental: Affinities of the novel antibodies were determined using a Microcal Auto-iTC200 isothermal titration calorimeter (Malvern). […] Data was fitted according to a one set of sites model using Microcal PEAQ-ITC Analysis Software (Malvern).
The continuous lines represent the fit of the data to a “one set of binding sites” model.

Binder | binding result [1] | Kd (Tau peptide A6940) [nM]
B1 | binds | 67
B2 | binds | 63
B3 | binds | 57
B4 | binds | –
B5 | binds | 45
